T1: recombinant Factor VIII (CSL627, rVIII-SingleChain) (Homo sapiens (Human), UniProt P00451 20-2351)
T1 construct: also called FVIII
T1 sequence: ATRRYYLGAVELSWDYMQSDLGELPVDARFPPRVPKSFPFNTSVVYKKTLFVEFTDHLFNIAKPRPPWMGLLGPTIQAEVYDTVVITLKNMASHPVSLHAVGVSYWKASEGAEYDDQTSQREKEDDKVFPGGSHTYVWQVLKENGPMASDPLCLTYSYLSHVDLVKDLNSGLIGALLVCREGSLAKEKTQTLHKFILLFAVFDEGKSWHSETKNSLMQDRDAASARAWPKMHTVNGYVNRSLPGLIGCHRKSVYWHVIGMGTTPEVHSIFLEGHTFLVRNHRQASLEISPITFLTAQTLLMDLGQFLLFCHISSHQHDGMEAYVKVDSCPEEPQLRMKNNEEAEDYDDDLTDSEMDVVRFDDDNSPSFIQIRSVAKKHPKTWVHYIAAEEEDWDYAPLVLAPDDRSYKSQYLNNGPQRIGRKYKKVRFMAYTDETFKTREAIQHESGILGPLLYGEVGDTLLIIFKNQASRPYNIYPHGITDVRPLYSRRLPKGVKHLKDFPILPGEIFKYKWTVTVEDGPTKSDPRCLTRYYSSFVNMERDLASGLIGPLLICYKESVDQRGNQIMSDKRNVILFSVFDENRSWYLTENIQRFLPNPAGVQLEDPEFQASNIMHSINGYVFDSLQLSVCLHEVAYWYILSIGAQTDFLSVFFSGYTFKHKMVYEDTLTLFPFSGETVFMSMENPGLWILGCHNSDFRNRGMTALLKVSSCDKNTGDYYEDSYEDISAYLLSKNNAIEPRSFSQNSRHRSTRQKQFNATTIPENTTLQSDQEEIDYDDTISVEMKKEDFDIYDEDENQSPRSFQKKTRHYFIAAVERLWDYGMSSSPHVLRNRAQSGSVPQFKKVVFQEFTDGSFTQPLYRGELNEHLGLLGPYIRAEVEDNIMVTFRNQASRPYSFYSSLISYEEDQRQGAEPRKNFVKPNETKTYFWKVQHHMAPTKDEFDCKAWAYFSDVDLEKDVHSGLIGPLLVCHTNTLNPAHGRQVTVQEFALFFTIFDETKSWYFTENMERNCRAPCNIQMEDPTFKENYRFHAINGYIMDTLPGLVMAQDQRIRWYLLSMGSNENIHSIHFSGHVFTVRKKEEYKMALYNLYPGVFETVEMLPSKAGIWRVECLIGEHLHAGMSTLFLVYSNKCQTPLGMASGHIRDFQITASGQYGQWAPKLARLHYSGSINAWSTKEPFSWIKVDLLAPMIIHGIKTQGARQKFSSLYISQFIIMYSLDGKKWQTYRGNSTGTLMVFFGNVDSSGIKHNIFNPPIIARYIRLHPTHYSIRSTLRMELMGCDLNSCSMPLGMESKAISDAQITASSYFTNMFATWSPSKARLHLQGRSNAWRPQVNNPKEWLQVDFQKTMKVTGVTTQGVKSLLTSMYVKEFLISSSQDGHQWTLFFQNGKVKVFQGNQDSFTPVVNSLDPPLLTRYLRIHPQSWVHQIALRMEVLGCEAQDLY


target: T1, recombinant Factor VIII (CSL627, …); assay: SPR, anti-His capture, FVIII injected, 37 C
Experimental: Binding kinetics were investigated by surface plasmon resonance using a Biacore 4000 biosensor at 37° C. Each mutant was captured from cell culture medium to a density of 40-150 RU on a CM-5 sensor chip pre-immobilised with anti-His antibody (14,000 RU). In an initial screening study, FVIII was injected over the captured mutants for 5 minutes at 1 nM and dissociation monitored for 5 minutes.
All sensorgrams were double referenced by subtraction of signals from a reference spot (containing only immobilised anti His antibody) and from a blank injection. Binding kinetics were determined by fitting the double referenced sensorgrams to a 1:1 kinetic model.

| binding result | Kd [nM] | koff [s⁻¹] | kon [M⁻¹ s⁻¹] | Binder |
| --- | --- | --- | --- | --- |
| no binding |  |  |  | Hu-vWF[764-1270]-8His S766W-S806F (other) SLWCRPPMVKLVCPADNLRAEGLECTKTCQNYDLECMSMGCVFGCLCPPGMVRHENRCVALERCPCFHQGKEYAPGETVKIGCNTCVCRDRKWNCTDHVCDATCSTIGMAHYLTFDGLKYLFPGECQYVLVQDYCGSNPGTFRILVGNKGCSHPSVKCKKRVTILVEGGEIELFDGEVNVKRPMKDETHFEVVESGRYIILLLGKALSVVWDRHLSISVVLKQTYQEKVCGLCGNFDGIQNNDLTSSNLQVEEDPVDFGNSWKVSSQCADTRKVPLDSSPATCHNNIMKQTMVDSSCRILTSDVFQDCNKLVDPEPYLDVCIYDTCSCESIGDCACFCDTIAAYAHVCAQHGKVVTWRTATLCPQSCEERNLRENGYECEWRYNSCAPACQVTCQHPEPLACPVQCVEGCHAHCPPGKILDELLQTCVDPEDCPVCEVAGRRFASGKKVTLNPSDPEHCQICHCDVVNLTCEACQEPGGLVVPPTDAPVSPTTLYVEDISEPPLHDFHHHHHHHH |
|  | 0.245 | 0.00134 | 5.46e+06 | Hu-vWF[764-1270]-8His S766W-S806G (other) SLWCRPPMVKLVCPADNLRAEGLECTKTCQNYDLECMSMGCVGGCLCPPGMVRHENRCVALERCPCFHQGKEYAPGETVKIGCNTCVCRDRKWNCTDHVCDATCSTIGMAHYLTFDGLKYLFPGECQYVLVQDYCGSNPGTFRILVGNKGCSHPSVKCKKRVTILVEGGEIELFDGEVNVKRPMKDETHFEVVESGRYIILLLGKALSVVWDRHLSISVVLKQTYQEKVCGLCGNFDGIQNNDLTSSNLQVEEDPVDFGNSWKVSSQCADTRKVPLDSSPATCHNNIMKQTMVDSSCRILTSDVFQDCNKLVDPEPYLDVCIYDTCSCESIGDCACFCDTIAAYAHVCAQHGKVVTWRTATLCPQSCEERNLRENGYECEWRYNSCAPACQVTCQHPEPLACPVQCVEGCHAHCPPGKILDELLQTCVDPEDCPVCEVAGRRFASGKKVTLNPSDPEHCQICHCDVVNLTCEACQEPGGLVVPPTDAPVSPTTLYVEDISEPPLHDFHHHHHHHH |
|  | 0.152 | 0.000585 | 3.84e+06 | Hu-vWF[764-1270]-8His S766W-S806N (other) SLWCRPPMVKLVCPADNLRAEGLECTKTCQNYDLECMSMGCVNGCLCPPGMVRHENRCVALERCPCFHQGKEYAPGETVKIGCNTCVCRDRKWNCTDHVCDATCSTIGMAHYLTFDGLKYLFPGECQYVLVQDYCGSNPGTFRILVGNKGCSHPSVKCKKRVTILVEGGEIELFDGEVNVKRPMKDETHFEVVESGRYIILLLGKALSVVWDRHLSISVVLKQTYQEKVCGLCGNFDGIQNNDLTSSNLQVEEDPVDFGNSWKVSSQCADTRKVPLDSSPATCHNNIMKQTMVDSSCRILTSDVFQDCNKLVDPEPYLDVCIYDTCSCESIGDCACFCDTIAAYAHVCAQHGKVVTWRTATLCPQSCEERNLRENGYECEWRYNSCAPACQVTCQHPEPLACPVQCVEGCHAHCPPGKILDELLQTCVDPEDCPVCEVAGRRFASGKKVTLNPSDPEHCQICHCDVVNLTCEACQEPGGLVVPPTDAPVSPTTLYVEDISEPPLHDFHHHHHHHH |
|  | 0.425 | 0.000872 | 2.05e+06 | Hu-vWF[764-1270]-8His S766W-S806M (other) SLWCRPPMVKLVCPADNLRAEGLECTKTCQNYDLECMSMGCVMGCLCPPGMVRHENRCVALERCPCFHQGKEYAPGETVKIGCNTCVCRDRKWNCTDHVCDATCSTIGMAHYLTFDGLKYLFPGECQYVLVQDYCGSNPGTFRILVGNKGCSHPSVKCKKRVTILVEGGEIELFDGEVNVKRPMKDETHFEVVESGRYIILLLGKALSVVWDRHLSISVVLKQTYQEKVCGLCGNFDGIQNNDLTSSNLQVEEDPVDFGNSWKVSSQCADTRKVPLDSSPATCHNNIMKQTMVDSSCRILTSDVFQDCNKLVDPEPYLDVCIYDTCSCESIGDCACFCDTIAAYAHVCAQHGKVVTWRTATLCPQSCEERNLRENGYECEWRYNSCAPACQVTCQHPEPLACPVQCVEGCHAHCPPGKILDELLQTCVDPEDCPVCEVAGRRFASGKKVTLNPSDPEHCQICHCDVVNLTCEACQEPGGLVVPPTDAPVSPTTLYVEDISEPPLHDFHHHHHHHH |
|  | 0.093 | 0.000828 | 8.9e+06 | Hu-vWF[764-1270]-8His S766W-S806H (other) SLWCRPPMVKLVCPADNLRAEGLECTKTCQNYDLECMSMGCVHGCLCPPGMVRHENRCVALERCPCFHQGKEYAPGETVKIGCNTCVCRDRKWNCTDHVCDATCSTIGMAHYLTFDGLKYLFPGECQYVLVQDYCGSNPGTFRILVGNKGCSHPSVKCKKRVTILVEGGEIELFDGEVNVKRPMKDETHFEVVESGRYIILLLGKALSVVWDRHLSISVVLKQTYQEKVCGLCGNFDGIQNNDLTSSNLQVEEDPVDFGNSWKVSSQCADTRKVPLDSSPATCHNNIMKQTMVDSSCRILTSDVFQDCNKLVDPEPYLDVCIYDTCSCESIGDCACFCDTIAAYAHVCAQHGKVVTWRTATLCPQSCEERNLRENGYECEWRYNSCAPACQVTCQHPEPLACPVQCVEGCHAHCPPGKILDELLQTCVDPEDCPVCEVAGRRFASGKKVTLNPSDPEHCQICHCDVVNLTCEACQEPGGLVVPPTDAPVSPTTLYVEDISEPPLHDFHHHHHHHH |
|  | 0.133 | 0.000566 | 4.26e+06 | Hu-vWF[764-1270]-8His S766W-S806P (other) SLWCRPPMVKLVCPADNLRAEGLECTKTCQNYDLECMSMGCVPGCLCPPGMVRHENRCVALERCPCFHQGKEYAPGETVKIGCNTCVCRDRKWNCTDHVCDATCSTIGMAHYLTFDGLKYLFPGECQYVLVQDYCGSNPGTFRILVGNKGCSHPSVKCKKRVTILVEGGEIELFDGEVNVKRPMKDETHFEVVESGRYIILLLGKALSVVWDRHLSISVVLKQTYQEKVCGLCGNFDGIQNNDLTSSNLQVEEDPVDFGNSWKVSSQCADTRKVPLDSSPATCHNNIMKQTMVDSSCRILTSDVFQDCNKLVDPEPYLDVCIYDTCSCESIGDCACFCDTIAAYAHVCAQHGKVVTWRTATLCPQSCEERNLRENGYECEWRYNSCAPACQVTCQHPEPLACPVQCVEGCHAHCPPGKILDELLQTCVDPEDCPVCEVAGRRFASGKKVTLNPSDPEHCQICHCDVVNLTCEACQEPGGLVVPPTDAPVSPTTLYVEDISEPPLHDFHHHHHHHH |
| no binding |  |  |  | Hu-vWF[764-1270]-8His S766W-S806L (other) SLWCRPPMVKLVCPADNLRAEGLECTKTCQNYDLECMSMGCVLGCLCPPGMVRHENRCVALERCPCFHQGKEYAPGETVKIGCNTCVCRDRKWNCTDHVCDATCSTIGMAHYLTFDGLKYLFPGECQYVLVQDYCGSNPGTFRILVGNKGCSHPSVKCKKRVTILVEGGEIELFDGEVNVKRPMKDETHFEVVESGRYIILLLGKALSVVWDRHLSISVVLKQTYQEKVCGLCGNFDGIQNNDLTSSNLQVEEDPVDFGNSWKVSSQCADTRKVPLDSSPATCHNNIMKQTMVDSSCRILTSDVFQDCNKLVDPEPYLDVCIYDTCSCESIGDCACFCDTIAAYAHVCAQHGKVVTWRTATLCPQSCEERNLRENGYECEWRYNSCAPACQVTCQHPEPLACPVQCVEGCHAHCPPGKILDELLQTCVDPEDCPVCEVAGRRFASGKKVTLNPSDPEHCQICHCDVVNLTCEACQEPGGLVVPPTDAPVSPTTLYVEDISEPPLHDFHHHHHHHH |
|  | 0.283 | 0.000447 | 1.58e+06 | Hu-vWF[764-1270]-8His S766W-S806I (other) SLWCRPPMVKLVCPADNLRAEGLECTKTCQNYDLECMSMGCVIGCLCPPGMVRHENRCVALERCPCFHQGKEYAPGETVKIGCNTCVCRDRKWNCTDHVCDATCSTIGMAHYLTFDGLKYLFPGECQYVLVQDYCGSNPGTFRILVGNKGCSHPSVKCKKRVTILVEGGEIELFDGEVNVKRPMKDETHFEVVESGRYIILLLGKALSVVWDRHLSISVVLKQTYQEKVCGLCGNFDGIQNNDLTSSNLQVEEDPVDFGNSWKVSSQCADTRKVPLDSSPATCHNNIMKQTMVDSSCRILTSDVFQDCNKLVDPEPYLDVCIYDTCSCESIGDCACFCDTIAAYAHVCAQHGKVVTWRTATLCPQSCEERNLRENGYECEWRYNSCAPACQVTCQHPEPLACPVQCVEGCHAHCPPGKILDELLQTCVDPEDCPVCEVAGRRFASGKKVTLNPSDPEHCQICHCDVVNLTCEACQEPGGLVVPPTDAPVSPTTLYVEDISEPPLHDFHHHHHHHH |

Reference: patent US20190015483A1 (CSL BEHRING RECOMBINANT FACILITY, published 2019)
